# Measured values taken from publication PMC10836395, “Investigation of how gate residues in the main channel affect the catalytic activity of Scytalidium thermophilum catalase” (Acta Crystallographica. Section D, Structural Biology, 2024).
# Where two headings read alike, the source gives them in different places.
# B1: T188I (Mycothermus thermophilus; T207I) (protein)
# chain: TCPFADPAALYSRQDTTSGQSPLAAYEVDDSTGYLTSDVGGPIQDQTSLKAGIRGPTLLEDFMFRQKIQHFDHERVPERAVHARGAGAHGTFTSYADWSNITAASFLNATGKQTPVFVRFSTVAGSRGSADTARDVHGFATRFYTDEGNFDIVGNNIPVFFIQDAIQFPDLIHSVKPRPDNEIPQAAIAHDSAWDFFSQQPSTMHTLFWAMSGHGIPRSYRHMDGFGVHTFRFVKDDGSSKLIKWHFKSRQGKASLVWEEAQVLSGKNADFHRQDLWDAIESGNGPEWDVCVQIVDESQAQAFGFDLLDPTKIIPEEYAPLTKLGLLKLDRNPTNYFAETEQVMFQPGHIVRGIDFTEDPLLQGRLFSYLDTQLNRNGGPNFEQLPINMPRVPIHNNNRDGAGQMFIHRNKYPYTPNTLNSGYPRQANQNAGRGFFTAPGRTASGALVREVSPTFNDHWSQPRLFFNSLTPVEQQFLVNAMRFEISLVKSEEVKKNVLTQLNRVSHDVAVRVAAAIGLGAPDADDTYYHNNKTAGVSIVGSGPLPTIKTLRVGILATTSESSALDQAAQLRTRLEKDGLVVTVVAETLREGVDQTYSTADATGFDGVVVVDGAAALFASTASSPLFPTGRPLQIFVDAYRWGKPVGVCGGKSSEVLDAADVPEDGDGVYSEESVDMFVEEFEKGLATFRFTDRFALDS
# notes: recombinant, pET-28-TEV-CATPO; contains heme b; Rz 0.4
# B2: CATPO (Mycothermus thermophilus) (protein)
# chain: TCPFADPAALYSRQDTTSGQSPLAAYEVDDSTGYLTSDVGGPIQDQTSLKAGIRGPTLLEDFMFRQKIQHFDHERVPERAVHARGAGAHGTFTSYADWSNITAASFLNATGKQTPVFVRFSTVAGSRGSADTARDVHGFATRFYTDEGNFDIVGNNIPVFFIQDAIQFPDLIHSVKPRPDNEIPQAATAHDSAWDFFSQQPSTMHTLFWAMSGHGIPRSYRHMDGFGVHTFRFVKDDGSSKLIKWHFKSRQGKASLVWEEAQVLSGKNADFHRQDLWDAIESGNGPEWDVCVQIVDESQAQAFGFDLLDPTKIIPEEYAPLTKLGLLKLDRNPTNYFAETEQVMFQPGHIVRGIDFTEDPLLQGRLFSYLDTQLNRNGGPNFEQLPINMPRVPIHNNNRDGAGQMFIHRNKYPYTPNTLNSGYPRQANQNAGRGFFTAPGRTASGALVREVSPTFNDHWSQPRLFFNSLTPVEQQFLVNAMRFEISLVKSEEVKKNVLTQLNRVSHDVAVRVAAAIGLGAPDADDTYYHNNKTAGVSIVGSGPLPTIKTLRVGILATTSESSALDQAAQLRTRLEKDGLVVTVVAETLREGVDQTYSTADATGFDGVVVVDGAAALFASTASSPLFPTGRPLQIFVDAYRWGKPVGVCGGKSSEVLDAADVPEDGDGVYSEESVDMFVEEFEKGLATFRFTDRFALDS
# notes: recombinant, pET-28-TEV-CATPO; contains heme d; Rz 0.8
# Legend:
# CATPO = CATPO (Scytalidium thermophilum (Humicola insolens), UniProt M4GGR5); assay: Inhibition of catechol oxidation; type: biochemical
# CATPO E484A variant = CATPO E484A variant (Scytalidium thermophilum (Humicola insolens), UniProt M4GGR5, E503A); assay: biochemical; conditions: catechol oxidation by E484A; read-out: K i
# CATPO E484D variant = CATPO E484D variant (Scytalidium thermophilum (Humicola insolens), UniProt M4GGR5, E503D); assay: biochemical; conditions: catechol oxidation by E484D; read-out: K i
# CATPO E484I variant = CATPO E484I variant (Scytalidium thermophilum (Humicola insolens), UniProt M4GGR5, E503I); assay: biochemical; conditions: catechol oxidation by E484I; read-out: K i
# CATPO T188A variant = CATPO T188A variant (Scytalidium thermophilum (Humicola insolens), UniProt M4GGR5, T207A); assay: biochemical; conditions: catechol oxidation by T188A; read-out: K i
# CATPO T188D variant = CATPO T188D variant (Scytalidium thermophilum (Humicola insolens), UniProt M4GGR5, T207D); assay: biochemical; conditions: catechol oxidation by T188D; read-out: K i
# CATPO T188F variant = CATPO T188F variant (Scytalidium thermophilum (Humicola insolens), UniProt M4GGR5, T207F); assay: biochemical; conditions: catechol oxidation by T188F; read-out: K i
# CATPO T188I variant = CATPO T188I variant (Scytalidium thermophilum (Humicola insolens), UniProt M4GGR5, T207I); assay: biochemical; conditions: catechol oxidation by T188I; read-out: K i
# mammalian catalase = biological target: mammalian catalase; design: method as in Vetrano et al., 2005; conditions: ref Vetrano et al., 2005; cited from earlier work
# CATPO variants = assay: Effects on the phenol oxidase activity of the CATPO variants taken together; type: biochemical, Scytalidium thermophilum; conditions: hydrogen peroxide 1–100 mM or ethanol 2–200 mM, before or after the addition of catechol
# Experimental: (§1) All inhibition assays were performed in triplicate.
# [1] = substrate: CCn1c(=NN=c2sc3cc(S(=O)(=O)O)ccc3n2CC)sc2cc(S(=O)(=O)O)ccc21; assay: purified protein, by the assay type; conditions: 60.0 °C
# [2] = substrate: CC(C)(C)c1ccc(O)c(O)c1; assay: Spectrophotometric phenol oxidase assay without H2O2 at pH 7.0 and 60 °C, initial rates fitted to the Michaelis-Menten equation.; type: biochemical
# Experimental: as §1
# [3] = substrate: Cc1ccc(O)c(O)c1; assay: as above; type: biochemical
# Experimental: as §1
# [4] = substrate: Oc1ccc(O)cc1; assay: as above; type: biochemical
# Experimental: as §1
# [5] = substrate: Oc1ccccc1O; assay: Spectrophotometric catechol oxidation assay at 420 nm, pH 7.0 and 60 °C; values not normalized to heme content.; type: biochemical
# Experimental: as §1
# Tabl e S1 Comparison of gate residues at the entrance of the main channel among large subunit […]
# PDB ID e Organism Gate residues
# Tabl e S2 K i neti c const ant s
# **Catalase activity **Phenol oxidase activity
# *KM-app kcat kcat/*KM-app KM kcat kcat/KM
# (mM) (s-1) (s-1 M-1) (mM) (s-1) (s-1 M-1) Rz Heme
# RZ = A407/A280. T he values were normalized to heme content in each CAT PO variant. T he values in parentheses are for unnor malized val ues a nd shaded in gre y for ease of vie wi ng. *KM-app is the H2O2 concentratio n at Vmax/2 […]
# Michaelis–Menten kinetics (Switala & Loewen, 2002).
# **One unit of catalase is defined as the amo unt that catalyses the degradation o f 1 µmol H2O2 in 1 min. One unit of phenol oxidase corresponds to the enzyme catalysing the formation of 1 nmol of product per minute.
# [6] = substrate: Oc1ccccc1O; assay: Phenol oxidase activity (H2O2-independent) measured spectrophotometrically by product formation at pH 7.0, 60 C, Michaelis-Menten fit.; type: biochemical
# Experimental: as §1
# [7] = substrate: Oc1ccccc1O; assay: as above; type: biochemical; remark: listed apart in the source
molecule,measurement,setting,value
"[F-].[Na+] [NaF, sodium fluoride]",inhibition type,"CATPO; catechol oxidase activity of wild-type CATPO, Lineweaver–Burk",uncompetitive
same,Ki,"CATPO; catechol oxidation by CATPO, catechol 1 to 100 mM, read-out: K i",0.67 ± 0.1 mM
same,Ki,CATPO E484A variant,7.8 ± 1.1 mM
same,Ki,CATPO E484D variant,0.66 ± 0.1 mM
same,Ki,CATPO E484I variant,5.5 ± 0.2 mM
same,Ki,CATPO T188A variant,0.65 ± 0.1 mM
same,Ki,CATPO T188D variant,5 ± 0.5 mM
same,Ki,CATPO T188F variant,6.4 ± 0.4 mM
same,Ki,CATPO T188I variant,5.8 ± 0.4 mM
same,Ki,mammalian catalase,0.75 mM
same,inhibition type,mammalian catalase,uncompetitive
CCO [ethanol],effect of addition on phenol oxidase activity,CATPO variants,not affected
OO [hydrogen peroxide],effect of addition on phenol oxidase activity,CATPO variants,not affected
B1,Km,[1],48 ± 0.7 mM
same,Km,[2],35 ± 0.5 mM
same,Km,[3],34 ± 1.2 mM
same,Km,[4],44 ± 0.4 mM
same,Km,[5],40 mM
same,Km,[6],31 ± 0.5 mM
same,kcat,[6],28400 ± 1100 s⁻¹
same,kcat/Km,[6],920000 ± 4500 M⁻¹ s⁻¹
B2,Km,[1],50 ± 1.5 mM
same,Km,[2],36 ± 1.0 mM
same,Km,[3],35 ± 0.3 mM
same,Km,[4],45 ± 1.5 mM
same,Km,[7],33 ± 0.5 mM
same,kcat,[7],7300 ± 365 s⁻¹
same,kcat/Km,[7],220000 ± 13000 M⁻¹ s⁻¹
